Measurements: publication PMC5505960, “A novel STK1-targeted small-molecule as an “antibiotic resistance breaker” against multidrug-resistant Staphylococcus aureus” (Scientific Reports, 2017)

Key:
[1] = system: WalR-P (STKK1-phosphorylated WalR) (Staphylococcus aureus (ORF numbering of N315; source strain of the clone not stated)); experiment: EMSA; details: scale: fold bound/free ratio vs unphosphorylated WalR
[2] = biological target: T1, STK1 (STKK1, soluble kinase domain) (Staphylococcus aureus, UniProt A0ABF7PGK0); experiment: inhibition of autophosphorylation of purified STKK1 (gamma-32P-ATP); also elution of STK1 from ATP column; assay type: biochemical
T1 construct: gene SA1063; His-tag-STKK1, kinase domain with part of the adjacent juxta-membrane domain (1-280 aa)

[3] = biological target: T1, STK1 (STKK1, soluble kinase domain); experiment: inhibition of autophosphorylation of purified STKK1 (gamma-32P-ATP); also elution of purified STKK1 from ATP column; assay type: biochemical

T1 sequence (A0ABF7PGK0 entry or part of it): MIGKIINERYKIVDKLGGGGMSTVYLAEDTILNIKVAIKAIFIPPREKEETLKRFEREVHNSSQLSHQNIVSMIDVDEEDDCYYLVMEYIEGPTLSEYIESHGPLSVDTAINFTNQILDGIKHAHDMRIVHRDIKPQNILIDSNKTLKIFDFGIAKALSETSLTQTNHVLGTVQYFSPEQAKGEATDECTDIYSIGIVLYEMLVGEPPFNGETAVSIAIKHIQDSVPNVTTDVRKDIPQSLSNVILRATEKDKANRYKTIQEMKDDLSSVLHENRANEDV

Compound | binding signal [1] | further results
PSA0710 promoter probe (lytE) | > 2 | –
Cc1ccc(NC(=O)c2sc(=S)n3c2[nH]c(=O)c2ccccc23)c(C)c1 [Inh2, N-(2,4-Dimethylphenyl)-5-oxo-1-thioxo-4,5-dihydro[1,3]thiazolo[3,4-a] quinazoline-3-carboxamide] | – | IC50 [2]: 24.5 µM
PSA2097 promoter probe (ssaA) | > 2 | –
COC(=O)c1ccc2c(=O)[nH]c3c(C(=O)Nc4ccccc4)sc(=S)n3c2c1 [Inh2-B1, Methyl 5-oxo-3-(phenylcarbamoyl)-1-thioxo-4,5dihydro[1,3]thiazolo[3,4-a]quinazoline-8-carboxylate] | – | IC50 [3]: 49 µM
